Results published in patent US10370433B2, “Compositions and methods for diagnosis and treatment of cancer” (BIONTECH AG, priority 2015, dated 2019).
Read-outs that look alike come from different tables or passages of the source.

What was measured:
in vivo = details: BALB/c nu/nu, mouse, iv, total radioactivity; for tissue uptake at 1 h / tissue uptake at 2 h / tissue uptake at 4 h / tissue uptake at 6 h / tissue uptake at 24 h / tissue uptake at 0.5 h: Mean % ID/g; for tissue uptake at 0.5 h: 30 min
[1] = human, in vivo, iv

CC[C@H](C)[C@@H]1NC(=O)[C@@H]2CSSC[C@H](NC(=O)[C@H](C)NC(=O)CNC(=O)[C@H](CO)NC(=O)CNC(=O)CON=CC(=O)NCCCC[C@H](NC(=O)[C@H](CO)NC(=O)CNC(=O)[C@H](CO)NC(=O)CNC(=O)[C@H](CCCCNC(=O)C=NOCC(=O)NCC(=O)N[C@@H](CO)C(=O)NCC(=O)N[C@@H](C)C(=O)N[C@H]3CSSC[C@@H]4NC(=O)[C@H](CCCNC(=N)N)NC(=O)CNC(=O)[C@@H]5CCCN5C(=O)[C@@H]5CSSC[C@@H](C(=O)NCC(=O)O)NC(=O)[C@H](Cc6ccc(O)cc6)NC(=O)CNC(=O)[C@H](CC(N)=O)NC(=O)CNC(=O)[C@H](CCCNC(=N)N)NC(=O)[C@H](CSSC[C@H](NC(=O)[C@H](CC(=O)O)NC(=O)[C@@H]6CCCN6C(=O)CNC(=O)[C@H](CCCNC(=N)N)NC(=O)CNC(=O)[C@@H]6CCCN6C(=O)[C@H]([C@@H](C)O)NC(=O)[C@H](Cc6c[nH]c7ccccc67)NC(=O)[C@H](CC(N)=O)NC(=O)[C@H](CO)NC(=O)[C@H](Cc6ccc(O)cc6)NC(=O)[C@@H]6CCCN6C3=O)C(=O)N[C@@H](CCCNC(=N)N)C(=O)N[C@@H](CCCNC(=N)N)C(=O)N[C@@H](CC(=O)O)C(=O)N[C@@H](CO)C(=O)N[C@@H](CC(=O)O)C(=O)N5)NC(=O)[C@H]([C@@H](C)CC)NC4=O)NC(=O)[C@H](CO)NC(=O)CNC(=O)[C@H](CO)NC(=O)CNC(=O)[C@H](CCCCNC(=O)C=NOCC(=O)NCC(=O)N[C@@H](CO)C(=O)NCC(=O)N[C@@H](C)C(=O)N[C@H]3CSSC[C@@H]4NC(=O)[C@H](CCCNC(=N)N)NC(=O)CNC(=O)[C@@H]5CCCN5C(=O)[C@@H]5CSSC[C@@H](C(=O)NCC(=O)O)NC(=O)[C@H](Cc6ccc(O)cc6)NC(=O)CNC(=O)[C@H](CC(N)=O)NC(=O)CNC(=O)[C@H](CCCNC(=N)N)NC(=O)[C@H](CSSC[C@H](NC(=O)[C@H](CC(=O)O)NC(=O)[C@@H]6CCCN6C(=O)CNC(=O)[C@H](CCCNC(=N)N)NC(=O)CNC(=O)[C@@H]6CCCN6C(=O)[C@H]([C@@H](C)O)NC(=O)[C@H](Cc6c[nH]c7ccccc67)NC(=O)[C@H](CC(N)=O)NC(=O)[C@H](CO)NC(=O)[C@H](Cc6ccc(O)cc6)NC(=O)[C@@H]6CCCN6C3=O)C(=O)N[C@@H](CCCNC(=N)N)C(=O)N[C@@H](CCCNC(=N)N)C(=O)N[C@@H](CC(=O)O)C(=O)N[C@@H](CO)C(=O)N[C@@H](CC(=O)O)C(=O)N5)NC(=O)[C@H]([C@@H](C)CC)NC4=O)NC(=O)[C@H](CO)NC(=O)CNC(=O)[C@H](CO)NC(=O)CNC(=O)CN3CCN(CC(=O)O)CCN(CC(=O)O)CCN(CC(=O)O)CC3)C(=O)O)C(=O)N3CCC[C@H]3C(=O)N[C@@H](Cc3ccc(O)cc3)C(=O)N[C@@H](CO)C(=O)N[C@@H](CC(N)=O)C(=O)N[C@@H](Cc3c[nH]c4ccccc34)C(=O)N[C@@H]([C@@H](C)O)C(=O)N3CCC[C@H]3C(=O)NCC(=O)N[C@@H](CCCNC(=N)N)C(=O)NCC(=O)N3CCC[C@H]3C(=O)N[C@@H](CC(=O)O)C(=O)N[C@H]3CSSC[C@H](NC1=O)C(=O)N[C@@H](CCCNC(=N)N)C(=O)NCC(=O)N[C@@H](CC(N)=O)C(=O)NCC(=O)N[C@@H](Cc1ccc(O)cc1)C(=O)N[C@H](C(=O)NCC(=O)O)CSSC[C@H](NC(=O)[C@H](CC(=O)O)NC(=O)[C@H](CO)NC(=O)[C@H](CC(=O)O)NC(=O)[C@H](CCCNC(=N)N)NC(=O)[C@H](CCCNC(=N)N)NC3=O)C(=O)N1CCC[C@H]1C(=O)NCC(=O)N[C@@H](CCCNC(=N)N)C(=O)N2 (single isomer, unassigned) [^177Lu-(MC-FA-012)3, metal not drawn] showed a tissue uptake at 1 h (in vivo) of 0.67 %ID/g, a tissue uptake at 2 h (in vivo) of 0.607 %ID/g and a tissue uptake at 4 h (in vivo) of 0.451 %ID/g. For the same compound, the tissue uptake at 6 h (in vivo) was 0.648 %ID/g, the tissue uptake at 24 h (in vivo) was 0.189 %ID/g and the tissue uptake at 0.5 h (in vivo; Blood) was 1.35 %ID/g. It also gave a tissue uptake at 1 h (in vivo; Blood) of 0.36 %ID/g, a tissue uptake at 2 h (in vivo; Blood) of 0.135 %ID/g and a tissue uptake at 4 h (in vivo; Blood) of 0.042 %ID/g. For the same compound, the tissue uptake at 6 h (in vivo; Blood) was 0.0374 %ID/g, the tissue uptake at 24 h (in vivo; Blood) was 0.0429 %ID/g and the tissue uptake at 0.5 h (in vivo; Heart) was 0.615 %ID/g. It also gave a tissue uptake at 1 h (in vivo; Heart) of 0.187 %ID/g, a tissue uptake at 2 h (in vivo; Heart) of 0.128 %ID/g and a tissue uptake at 4 h (in vivo; Heart) of 0.102 %ID/g. For the same compound, the tissue uptake at 6 h (in vivo; Heart) was 0.0876 %ID/g, the tissue uptake at 24 h (in vivo; Heart) was 0.0641 %ID/g and the tissue uptake at 2 h (in vivo; Injection site) was 2.87 %ID/g. It also gave a tissue uptake at 4 h (in vivo; Injection site) of 2.61 %ID/g, a tissue uptake at 6 h (in vivo; Injection site) of 1.57 %ID/g and a tissue uptake at 24 h (in vivo; Injection site) of 0.983 %ID/g. It also gave a tissue uptake at 0.5 h (in vivo; Liver) of 0.668 %ID/g, a tissue uptake at 1 h (in vivo; Liver) of 0.398 %ID/g and a tissue uptake at 2 h (in vivo; Liver) of 0.44 %ID/g. It also gave a tissue uptake at 4 h (in vivo; Liver) of 0.41 %ID/g, a tissue uptake at 6 h (in vivo; Liver) of 0.431 %ID/g and a tissue uptake at 24 h (in vivo; Liver) of 0.363 %ID/g. For the same compound, the tissue uptake (in vivo; signal in kidney) was 287 %ID/g, the “Mean % ID/g, Brain” value (CT26-huSeprase tumors; 30 min) was 0.6895 % ID/g and the “Mean % ID/g, Injection site” value (CT26-huSeprase tumors; 30 min) was 4.2434 % ID/g. For the same compound, the “Mean % ID/g, Intestine” value (CT26-huSeprase tumors; 30 min) was 0.7435 % ID/g, the “Mean % ID/g, Kidneys” value (CT26-huSeprase tumors; 30 min) was 286.7812 % ID/g and the “Mean % ID/g, Muscle” value (CT26-huSeprase tumors; 30 min) was 0.0589 % ID/g. For the same compound, the “Mean % ID/g, Spleen” value (CT26-huSeprase tumors; 30 min) was 0.9253 % ID/g, the “Mean % ID/g, Tumor” value (CT26-huSeprase tumors; 30 min) was 9.8546 % ID/g and the “Mean % ID/g, Brain” value (CT26-huSeprase tumors; 1 h) was 0.2284 % ID/g. For the same compound, the “Mean % ID/g, Injection site” value (CT26-huSeprase tumors; 1 h) was 15.2418 % ID/g, the “Mean % ID/g, Intestine” value (CT26-huSeprase tumors; 1 h) was 0.5079 % ID/g and the “Mean % ID/g, Muscle” value (CT26-huSeprase tumors; 1 h) was 0.0423 % ID/g. The “Mean % ID/g, Spleen” value (CT26-huSeprase tumors; 1 h) was 0.5493 % ID/g, the “Mean % ID/g, Tumor” value (CT26-huSeprase tumors; 1 h) was 6.7929 % ID/g and the “Mean % ID/g, Brain” value (CT26-huSeprase tumors; 2 h) was 0.5818 % ID/g. For the same compound, the “Mean % ID/g, Intestine” value (CT26-huSeprase tumors; 2 h) was 1.0902 % ID/g, the “Mean % ID/g, Kidneys” value (CT26-huSeprase tumors; 2 h) was 272.3888 % ID/g and the “Mean % ID/g, Muscle” value (CT26-huSeprase tumors; 2 h) was 0.0317 % ID/g. For the same compound, the “Mean % ID/g, Spleen” value (CT26-huSeprase tumors; 2 h) was 0.6561 % ID/g, the “Mean % ID/g, Tumor” value (CT26-huSeprase tumors; 2 h) was 8.1504 % ID/g and the “Mean % ID/g, Brain” value (CT26-huSeprase tumors; 4 h) was 0.3159 % ID/g. For the same compound, the “Mean % ID/g, Intestine” value (CT26-huSeprase tumors; 4 h) was 0.2913 % ID/g, the “Mean % ID/g, Kidneys” value (CT26-huSeprase tumors; 4 h) was 245.1877 % ID/g and the “Mean % ID/g, Muscle” value (CT26-huSeprase tumors; 4 h) was 0.0241 % ID/g. For the same compound, the “Mean % ID/g, Spleen” value (CT26-huSeprase tumors; 4 h) was 0.5931 % ID/g, the “Mean % ID/g, Tumor” value (CT26-huSeprase tumors; 4 h) was 7.7667 % ID/g and the “Mean % ID/g, Brain” value (CT26-huSeprase tumors; 6 h) was 0.2159 % ID/g. For the same compound, the “Mean % ID/g, Intestine” value (CT26-huSeprase tumors; 6 h) was 0.9309 % ID/g, the “Mean % ID/g, Kidneys” value (CT26-huSeprase tumors; 6 h) was 259.4467 % ID/g and the “Mean % ID/g, Muscle” value (CT26-huSeprase tumors; 6 h) was 0.1259 % ID/g. The “Mean % ID/g, Spleen” value (CT26-huSeprase tumors; 6 h) was 0.6287 % ID/g, the “Mean % ID/g, Tumor” value (CT26-huSeprase tumors; 6 h) was 7.8057 % ID/g and the “Mean % ID/g, Brain” value (CT26-huSeprase tumors; 24 h) was 0.2151 % ID/g. For the same compound, the “Mean % ID/g, Intestine” value (CT26-huSeprase tumors; 24 h) was 0.3347 % ID/g, the “Mean % ID/g, Kidneys” value (CT26-huSeprase tumors; 24 h) was 213.4107 % ID/g and the “Mean % ID/g, Muscle” value (CT26-huSeprase tumors; 24 h) was 0.0253 % ID/g. The “Mean % ID/g, Spleen” value (CT26-huSeprase tumors; 24 h) was 0.4561 % ID/g, the “Mean % ID/g, Tumor” value (CT26-huSeprase tumors; 24 h) was 5.8505 % ID/g and the “Mean % ID/g, Kidneys” value (CT26-huSeprase tumors; mouse, in vivo) was 222.3177 % ID/g. For the same compound, the signal in tumor (CT26-huSeprase tumors; mouse, in vivo) was 9.9-5.9, the tumor targeting (CT26-huSeprase tumors; mouse, in vivo) was “specific tumor targeting” and the acute nephrotoxicity [1] was “no acute nephrotoxicity”.
